Results from US20070196354A1, “Method of treating diabetes by inhibiting degradation of at least one of crebl1, atf6, and hnf-4 alpha by htra” (priority 2003, published 2007).

Legend:
casein = assay: Casein zymography and protease assay with casein sodium; format: biochemical; conditions: casein zymography and casein sodium protease assay, 37° C., E. coli-expressed His-tagged protein
Method: Determination of the activity of mature HtrA2 and mature HtrA2 (S306A) was carried out with casein zymography and with a protease assay with casein sodium. Casein zymography was carried out according to the protocol (Invitrogen). More concretely, mature HtrA2 and mature HtrA2 (S306A) were mixed under non-reductive condition with equivalent volume of 2×SDS sample buffer, left to stand at room temperature for 10 min, followed by separation with 4-16% zymogram (Blue casein) gel (Zymogram Gel, Invitrogen). After completion of electrophoresis, they were renatured with 2.5% Triton X-100, and then subjected to a degradation reaction of casein in the developing buffer at 37= C. for overnight.
Meanwhile, a protease assay using casein sodium as an substrate was carried out in such that mature HtrA2 or mature HtrA2 (S306A) was mixed with casein sodium in a reaction buffer (150 mM NaCl, 50 mM Tris-HCl (pH 7.5)) so as to the concentration of the former might become 200 μg/ml and the concentration of the latter might become 400 μg/ml, and incubated at 37° C. for reactions. A portion of the reaction solution was sampled at three hours and overnight after initiation of the reaction, mixed with equivalent volume of 2×SDS sample buffer followed by boiling, and then subjected to SDS-PAGE. After that, the degradation of casein sodium was detected by Coomassie Brilliant Blue (CBB) staining.
The enzyme activity of the various types of HtrA2 each of which was expressed in a cultured cell was determined by the protease assay using casein sodium as a substrate (see Example 2).

biotinylated CREBL1 = molecular target: T1, biotinylated CREBL1 (Homo sapiens, UniProt Q99941); assay: In vitro protease assay using biotinylated CREBL1 (degradation pattern); format: biochemical; conditions: 37° C., 4 hours or overnight
T1 construct: made in house; host or cells: cell-free: rabbit reticulocyte lysate (TNT Transcription/Translation System, Promega); the unpurified reaction solution was used
T1 sequence (Q99941 1-703): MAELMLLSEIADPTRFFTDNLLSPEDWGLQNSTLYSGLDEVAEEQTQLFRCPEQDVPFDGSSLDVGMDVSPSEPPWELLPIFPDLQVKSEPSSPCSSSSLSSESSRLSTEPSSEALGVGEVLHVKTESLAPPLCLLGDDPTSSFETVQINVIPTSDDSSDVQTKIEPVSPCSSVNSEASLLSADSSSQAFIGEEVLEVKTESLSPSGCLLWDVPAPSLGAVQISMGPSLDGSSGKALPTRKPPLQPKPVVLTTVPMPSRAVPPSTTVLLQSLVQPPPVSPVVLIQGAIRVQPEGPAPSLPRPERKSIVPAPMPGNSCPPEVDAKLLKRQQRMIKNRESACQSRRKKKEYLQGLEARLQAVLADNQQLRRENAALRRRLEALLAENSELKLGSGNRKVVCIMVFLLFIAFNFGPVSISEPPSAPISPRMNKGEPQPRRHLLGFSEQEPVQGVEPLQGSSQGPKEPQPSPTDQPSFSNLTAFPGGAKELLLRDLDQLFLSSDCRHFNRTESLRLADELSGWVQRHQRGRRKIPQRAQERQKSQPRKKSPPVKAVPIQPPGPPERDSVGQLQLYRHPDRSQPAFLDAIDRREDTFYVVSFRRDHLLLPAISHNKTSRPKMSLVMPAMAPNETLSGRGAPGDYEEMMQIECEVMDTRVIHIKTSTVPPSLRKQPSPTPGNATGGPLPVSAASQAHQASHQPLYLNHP
Method: More concretely, first, 1.5 μl of the animal cell expression plasmid for CREBL1 (1 μg/μl), 1 μl of 1 mM methionine, 1 μl of biotinylated lysine tRNA (Promega), and 6.5 μl of nuclease free water were added to 40 μl of in vitro translation reaction solution (TNT® Quick Master Mix) to obtain total volume of 50 μl, and reacted for at 30° C. for 1.5 hours. Following this, 12.5 μl of 50 μl reaction solution was sampled, followed by adding with 2×SDS sample buffer and boiling, to detect the expression of biotinylated CREBL1 by western blotting. The detection was carried out using streptavidin HRP (Promega) and Transcend™ Chemiluminescent substrate (Transcend™ Non-Radioactive Translation detection system; Promega). As a result, biotinylation of CREBL1 was confirmed in sample.
The reaction solution was used as the sample for protease assay. 12.5 μl each of the reaction solution was dispensed to three tubes (Nos. 2 to 4). 25 μl of 50 mM Tris-HCl (pH 7.5), 150 mM NaCl, 0.01% Triton X-100 was added as the control to tube No. 2, 25 μl of 200 μg/m mature HtrA2 solution was added to tube No. 3, and 25 μl of 200 μg/ml mature HtrA2 (S306A) solution was added to tube No. 4, respectively, and mixed. […]

B1: mature HtrA2: SEQ ID NO: 4; mature protein generated from HtrA2 precursor by cleavage of N-terminal 133 residues, has protease activity (protein, listed as Homo sapiens)
chain: MAVPSPPPASPRSQYNFIADVVEKTAPAVVYIEILDRHPFLGREVPISNGSGFVVAADGLIVTNAHVVADRRRVRVRLLSGDTYEAVVTAVDPVADIATLRIQTKEPLPTLPLGRSADVRQGEFVVAMGSPFALQNTITSGIVSSAQRPARDLGLPQTNVEYIQTDAAIDFGNSGGPLVNLDGEVIGVNTMKVTAGISFAIPSDRLREFLHRGEKKNSSSGISGSQRRYIGVMMLTLSPSILAELQLREPSFPDVQHGVLIHKVILGSPAHRAGLRPGDVILAIGEQMVQNAEDVYEAVRTQSQLAVQIRRGRETLTLYVTPEVTE
modifications: mature HtrA2
degradation of casein (casein): degradation of casein by mature HtrA2 was observed
degradation of N-terminal tagged-CREBL1, detecting the Tag (biotinylated CREBL1; anti-Tag antibody): The band of N-terminal tagged-CREBL1 was reduced significantly
degradation of biotinylated CREBL1, detecting the biotin (biotinylated CREBL1; streptavidin HRP): The band of biotinylated CREBL1 was reduced significantly
